Data as given in article PMC7443692.

Biological target: SARS-CoV-2 Spike glycoprotein trimer immunogen (stabilized, soluble ectodomain) (SARS-CoV-2 | not stated) (UniProt P0DTC2)
Experiment: negative stain electron microscopy

## SARS-CoV-2 Spike glycoprotein trimer immunogen (stabilized, soluble ectodomain) (from UniProt P0DTC2 14-1208)
  stoichiometry N: 3
